# Assay results as given in article PMC3554283 (Diabetes Care, 2013).
# Key:
# [1] = system: healthy volunteers; assay: Eight-hour euglycemic glucose clamp; format: in vivo, human; details: mean ± SD; 0.15 units/kg s.c.; 14 healthy volunteers; 8-h euglycemic clamp
# [2] = Serum insulin pharmacokinetics after subcutaneous injection; format: in vivo, human; details: 0.15 units/kg s.c., 14 healthy volunteers
substance,measurement,setting,value
insulin glulisine,onset of action (early T50% GIRmax),[1],47 ± 19 min
same,time to 50% glucose infused,[1],183 ± 34 min
same,onset (early t50%) of exposure,[2],21 min
same,tmax,[2],1.33 h
